This data set addresses YhaM D193A (Staphylococcus aureus JE2 (USA300), UniProt A0A0H2XHZ3 1-313, D193A). The data set can be described thus: EMSA; 1 mM Mn2+; 15 nM RNA, 0-30 uM YhaM; partial RNA degradation at high protein; EMSA: 50 mM Na-Tricine pH 8.0, 100 mM KCl, 1 mM MnSO4, 37 C 20 min, 20% TBE native gel. The settings on record: protein: recombinant; tags: N-terminal His6 (pMCSG7); label: 5'-6-FAM; single strand. In general terms: Mobility shift assays separate free from complexed probe on a gel.

B1: RNA_a (ssRNA)
RNA: AGGAAAAAACAUUUUAUAAAGGAGA
As for B1, the binding result was “binds”.
